Assay results: paper PMC4267625, “Ubiquitin recognition by FAAP20 expands the complex interface beyond the canonical UBZ domain” (Nucleic Acids Research, 2014)
Residue numbers refer to the chain shown, from its start. In names and notes the source's numbering stands.

B1: human FAAP20 UBZ (residues 140-180 of FAAP20 isoform 2), wild type (domain or fragment, UniProt Q6NZ36 140-180, looked up)
chain: GAAALRSCPMCQKEFAPRLTQLDVDSHLAQCLAESTEDVTW
notes: ends at the C-terminal W180; ZnSO4 was added at induction; 15N/13C-labelled for NMR; also called WT FAAP20; apo FAAP20; source: E. coli BL21 STAR (DE3), purified (Ni-NTA, TEV cleavage, second Ni-NTA, Superdex 75); not shown: His10, N-terminal, cleaved; GB1, N-terminal, cleaved
B2: human FAAP20 UBZ W180A (domain or fragment, UniProt Q6NZ36 140-180, looked up)
chain: B1 chain with W41A
notes: also called FAAP20 W180A mutant; source: E. coli BL21 STAR (DE3), purified (Ni-NTA, TEV cleavage, second Ni-NTA, Superdex 75); not shown: His10, N-terminal, cleaved; GB1, N-terminal, cleaved
B3: human FAAP20 UBZ A168Y (domain or fragment, UniProt Q6NZ36 140-180, looked up)
chain: B1 chain with A29Y
notes: source: E. coli BL21 STAR (DE3), purified (Ni-NTA, TEV cleavage, second Ni-NTA, Superdex 75); not shown: His10, N-terminal, cleaved; GB1, N-terminal, cleaved
B4: human FAAP20 UBZ D164A (domain or fragment, UniProt Q6NZ36 140-180, looked up)
chain: B1 chain with D25A
notes: as for B3
B5: human FAAP20 UBZ L171A (domain or fragment, UniProt Q6NZ36 140-180, looked up)
chain: B1 chain with L32A
notes: as for B3

Target: T1, human ubiquitin, wild type (human, UniProt P0CG48 1-76)
T1 construct: ubiquitin, human; the mature ubiquitin unit cut from its precursor; also called WT ubiquitin; source: E. coli BL21 STAR (DE3), purified (Ni-NTA, thrombin cleavage, benzamidine column, second Ni-NTA, Superdex 75); not shown: His6, N-terminal, cleaved
Test: ITC; ubiquitin (2-3 mM) titrated into FAAP20 (0.2-0.3 mM); 25 mM sodium phosphate, 100 mM KCl, pH 7.0; 25°C; 28 injections of 10 μl; one-site binding fit
Settings: both partners purified

Row | Binder | Kd [µM]
1 | B1 | 9.26
2 | B2 | > 600
3 | B3 | > 600
4 | B4 | > 600
5 | B5 | 529
